Reference: PMC9408853

Columns and labels:
[1] = molecular target: human C-C chemokine receptor type 7 (human) (UniProt P32248)
CCR7-LgBiT (human) = CCR7-LgBiT (human) (UniProt P32248)
[2] = molecular target: human C-C chemokine receptor type 7 (human) (UniProt P32248); remark: listed apart in the source

Substance	cellular electrical impedance of HEK293 cells stably expressing CCR7, AUC[0–120], pEC50 [1]	ligand-induced β-arrestin2 recruitment to CCR7 (NanoBiT, CCR7-LgBiT with SmBiT-β-arrestin2 in HEK293 cells), pEC50 (CCR7-LgBiT (human))	G protein activation, Gαi-1 (nanoBRET, Gαi1-91-NLuc with Gγ2-LSS-mKATE2) in HEK293 cells stably expressing CCR7, pEC50 [2]	G protein activation, Gαi-2 (nanoBRET, Gαi2-91-NLuc with Gγ2-LSS-mKATE2) in HEK293 cells stably expressing CCR7, pEC50 [2]	G protein activation, Gαi-3 (nanoBRET, Gαi3-91-NLuc with Gγ2-LSS-mKATE2) in HEK293 cells stably expressing CCR7, pEC50 [2]	inhibition of forskolin-induced cAMP production (GloSensor) in HEK293 cells stably expressing CCR7, pEC50 [2]	ligand-induced CCR7 internalisation (flow cytometry of surface CCR7, 30 min at 37 °C) in HEK293 cells stably expressing CCR7, pEC50 [2]
C-C chemokine ligand 19 (from UniProt Q99731 22-98)	8.2 pEC50 (M)	7.61 pEC50 (M)	8.64 pEC50 (M)	9.02 pEC50 (M)	9.61 pEC50 (M)	7.83 pEC50 (M)	7.7 pEC50 (M)
C-C chemokine ligand 21 (from UniProt O00585 24-134)	6.93 pEC50 (M)	6.48 pEC50 (M)	8.44 pEC50 (M)	8.72 pEC50 (M)	9.34 pEC50 (M)	7.67 pEC50 (M)	6.73 pEC50 (M)
